The results in this text go back to patent US20180022794A1 (INSERM INSTITUT NATIONAL DE LA SANTE ET DE LA RECHERCHE …, published 2018).

Common to all, as to test: binding kinetics, method not stated (Table 1)
One assay addresses Rac Q61L (UniProt P63000 1-189).
In the next assay the target is T1, RhoB Q63L (UniProt P62745 1-193, limits assumed).
T1 construct: also called RhoB Q63L (2SHA); constitutively active RhoB mutant

Another assay concerns the target T2, RhoC Q63L (UniProt P08134 1-190, limits assumed).
T2 construct: also called RhoC Q63L (2SHA); constitutively active RhoC mutant

Another assay has as its target T3, RhoA Q63L (UniProt P61586 1-190, limits assumed).
T3 construct: also called RhoA Q63L (2SHA); constitutively active RhoA mutant

T1 sequence (P62745 1-193 Q63L limits assumed): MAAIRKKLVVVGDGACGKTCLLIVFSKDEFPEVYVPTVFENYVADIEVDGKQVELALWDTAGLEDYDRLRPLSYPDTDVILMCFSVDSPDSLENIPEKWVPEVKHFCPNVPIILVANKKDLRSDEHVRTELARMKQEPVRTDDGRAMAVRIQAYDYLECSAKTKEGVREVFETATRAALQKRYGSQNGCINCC
T2 sequence (P08134 1-190 Q63L limits assumed): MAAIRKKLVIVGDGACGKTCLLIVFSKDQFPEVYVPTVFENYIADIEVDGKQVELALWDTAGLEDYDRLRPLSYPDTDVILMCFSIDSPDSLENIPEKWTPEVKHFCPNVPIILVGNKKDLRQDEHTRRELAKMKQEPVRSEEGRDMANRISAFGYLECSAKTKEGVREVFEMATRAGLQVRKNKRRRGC
T3 sequence (P61586 1-190 Q63L limits assumed): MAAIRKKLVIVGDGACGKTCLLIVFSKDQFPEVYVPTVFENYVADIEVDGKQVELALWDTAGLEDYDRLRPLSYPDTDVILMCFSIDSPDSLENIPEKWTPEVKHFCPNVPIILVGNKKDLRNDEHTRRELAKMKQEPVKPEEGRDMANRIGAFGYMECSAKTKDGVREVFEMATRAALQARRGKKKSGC

B1: H12 hs2dAb (VHH)
VHH: VQLQASGGGFVQPGGSLRLSCAASGDGSRIYAMGWFRQAPGKEREFVSAISWEQDWEHYYADSVKGRFTISRDNSKNTVYLQMNSLRAEDTATYYCAAFMTPHRNLTSMYWGQGTQVTVSS
notes: Humanized synthetic single domain antibody; Soluble form was used in ELISA and immunofluorescence and detected through a myc tag; also called clone H12; H12 antibody
A word on the Kd: it is the free concentration of one partner at which half of the binding sites on the other are occupied at equilibrium, for simple one-to-one binding. A high value points to lower affinity. Broadly, the koff is a measure of how fast the partners let go of each other. Low readings indicate a long-lived complex, high ones a short-lived complex. A word on the kon: it is the rate constant with which the complex forms. Low readings indicate slow association, high ones fast association. In the assay with Rac Q61L, B1 had a Kd of 0.33 nM, a koff of 0.000255 s⁻¹ and an association rate constant (kon) of 753000 M⁻¹ s⁻¹. Further, in the assay with RhoB Q63L, the equilibrium dissociation constant (Kd) was found to be 1.57 nM, the koff was 0.000359 s⁻¹ and the kon came out at 224000 M⁻¹ s⁻¹.

B2: 5SNP65 hs2dAb (VHH)
VHH: VQLQASGGGFVQPGGSLRLSCAASGATYEGEAMGWFRQAPGKEREFVSAISSYPSVISYYADSVKGRFTISRDNSKNTVYLQMNSLRAEDTATYYCAYWVNHEGTIREIYWGQGTQVTVSS
In the case of B2, the Kd worked out at 0.608 nM with RhoC Q63L, 0.6 nM in the assay with RhoA Q63L and 2.36 nM with RhoB Q63L. In addition, the koff with RhoC Q63L was determined as 0.001 s⁻¹; with RhoA Q63L, 0.000522 s⁻¹; with RhoB Q63L, 0.000599 s⁻¹. In addition, the kon was determined as 1.71e+06 M⁻¹ s⁻¹ with RhoC Q63L, 870000 M⁻¹ s⁻¹ with RhoA Q63L and 253000 M⁻¹ s⁻¹ with RhoB Q63L.

B3: B6 hs2dAb (VHH)
VHH: VQLQASGGGFVQPGGSLRLSCAASGYGSTIETMGWFRQAPGKEREFVSAISRAPGPSQYYADSVKGRFTISRDNSKNTVYLQMNSLRAEDTATYYCAPINNRTMQDSMFLWNYWGQGTQVTVSS
notes: also called hs2dAb B6
In the case of B3, in the assay with RhoC Q63L, the Kd was determined as 2.32 nM, the koff was determined as 0.000625 s⁻¹ and the on-rate (kon) was 1.45e+06 M⁻¹ s⁻¹. In addition, in the assay with RhoA Q63L, the Kd was determined as 1.31 nM, the koff is 0.0008 s⁻¹ and the kon was 1.05e+06 M⁻¹ s⁻¹.

B4: 5SNP48 hs2dAb (VHH)
VHH: VQLQASGGGFVQPGGSLRLSCAASGTSWFTEVMGWFRQAPGKEREFVSAISGLHDVGTYYADSVKGRFTISRDNSKNTVYLQMNSLRAEDTATYYCAALDKWYTKAMDARKDYWGQGTQVTVSS
With B4, in the assay with RhoC Q63L, binding was characterised by a dissociation constant (Kd) of 0.524 nM, the koff worked out at 0.000901 s⁻¹ and the kon was 1.72e+06 M⁻¹ s⁻¹. In the assay with RhoA Q63L, this molecule registered a Kd of 0.84 nM, a koff of 0.000686 s⁻¹ and a kon of 814000 M⁻¹ s⁻¹. In the assay with RhoB Q63L, this molecule returned a Kd of 5.21 nM, a koff of 0.0024 s⁻¹ and a kon of 462000 M⁻¹ s⁻¹.

B5: 4SNP61 hs2dAb (VHH)
VHH: VQLQASGGGFVQPGGSLRLSCAASGFTSTSTVMGWFRQAPGKEREFVSAISSAHTMDTYYADSVKGRFTISRDNSKNTVYLQMNSLRAEDTATYYCAPAPMLGQMITQPALPYWGQGTQVTVSS
In the assay with RhoC Q63L, B5 came in with a Kd of 5.3 nM, an off-rate constant (koff) of 0.0046 s⁻¹ and an on-rate constant (kon) of 875000 M⁻¹ s⁻¹. Moreover, in the assay with RhoA Q63L, the Kd turned out to be 1.21 nM, the koff was determined as 0.0013 s⁻¹ and the kon stood at 1.1e+06 M⁻¹ s⁻¹. In the assay with RhoB Q63L, this molecule returned a Kd of 4.68 nM, a dissociation rate constant (koff) of 0.0033 s⁻¹ and a kon of 722000 M⁻¹ s⁻¹.
